Test results taken from ChEMBL document CHEMBL2074064, “Uptake of cyclic dipeptide by PEPT1 in Caco-2 cells: phenolic hydroxyl group of substrate enhances affinity for PEPT1” (J Pharm Pharmacol, 2002).

Tests used:
Assay type in all cases: functional, cell-based
[1] = substrate: O=C1CNC(=O)[C@H](Cc2ccccc2)N1; experiment: (§1) TP_TRANSPORTER: uptake in Caco-2 cells
[2] = substrate: O=C1CNC(=O)[C@H](Cc2ccc(O)cc2)N1; experiment: as §1
[3] = substrate: O=C1N[C@@H](Cc2ccccc2)C(=O)N[C@H]1CO; experiment: as §1
[4] = substrate: O=C1N[C@@H](Cc2ccc(O)cc2)C(=O)N[C@H]1CO; experiment: as §1

B1: Solute carrier family 15 member 1 (Homo sapiens), P46059 (protein)
chain: MGMSKSHSFFGYPLSIFFIVVNEFCERFSYYGMRAILILYFTNFISWDDNLSTAIYHTFVALCYLTPILGALIADSWLGKFKTIVSLSIVYTIGQAVTSVSSINDLTDHNHDGTPDSLPVHVVLSLIGLALIALGTGGIKPCVSAFGGDQFEEGQEKQRNRFFSIFYLAINAGSLLSTIITPMLRVQQCGIHSKQACYPLAFGVPAALMAVALIVFVLGSGMYKKFKPQGNIMGKVAKCIGFAIKNRFRHRSKAFPKREHWLDWAKEKYDERLISQIKMVTRVMFLYIPLPMFWALFDQQGSRWTLQATTMSGKIGALEIQPDQMQTVNAILIVIMVPIFDAVLYPLIAKCGFNFTSLKKMAVGMVLASMAFVVAAIVQVEIDKTLPVFPKGNEVQIKVLNIGNNTMNISLPGEMVTLGPMSQTNAFMTFDVNKLTRINISSPGSPVTAVTDDFKQGQRHTLLVWAPNHYQVVKDGLNQKPEKGENGIRFVNTFNELITITMSGKVYANISSYNASTYQFFPSGIKGFTISSTEIPPQCQPNFNTFYLEFGSAYTYIVQRKNDSCPEVKVFEDISANTVNMALQIPQYFLLTCGEVVFSVTGLEFSYSQAPSNMKSVLQAGWLLTVAVGNIIVLIVAGAGQFSKQWAEYILFAALLLVVCVIFAIMARFYTYINPAEIEAQFDEDEKKNRLEKSNPYFMSGANSQKQM
Km [1]: 90.9 µM | Km [2]: 62.9 µM | Km [3]: 118 µM | Km [4]: 21.9 µM
